The record followed here is US20220389113A1, “BINDING PROTEINS TO CUB DOMAIN-CONTAINING PROTEIN (CDCP1)” (COMMONWEALTH SCIENTIFIC AND INDUSTRIAL RESEARCH ORGANISATION, priority 2019, published 2022).

Data set [1] has as its system clear cell EOC PDX PH250. The settings on record: mouse, in vivo. Here is the method:
Mouse experiments were approved by the University of Queensland Animal Ethics Committee. For PET/CT imaging female NOD.Cg-Prkdc^scid Il2rg^tmwil/SzJ mice (6-8 weeks; 4 per group; Jackson Laboratory, Bar Harbor, Me.) were injected intraperitoneally with cells dissociated from a previously described clear cell EOC PDX designated PH250 (Weroha S J, et al., (2014) Clin Cancer Res. 2014; 20(5):1288-97) (0.2 g/mouse of pelleted cell slurry). CDCP1 expression by PDX PH250 was assessed by immunohistochemical and Western blot analysis as described (He Y, et al., (2016) Oncogene. 35(4):468-78.). 10D7 and IgG1K control were labelled with the positron-emitting radionuclide ^89Zr as described (Zeglis B M, et al., (2015) J Vis Exp. (96): 52521)), and yield and purity determined by radio-TLC and -HPLC (Agilent, Mulgrave, Australia). […] PET image acquisition (30 minutes) was followed by CT for anatomical registration and attenuation correction, with images reconstructed and analyzed using the Inveon Research Workspace (Siemens). Ex vivo bio-distribution was assessed after the final imaging time point. Harvested tumour and organs, cleaned of blood, were weighed and radioactivity quantified using a PerkinElmer 2480 Automatic Gamma Counter (Perkin Elmer, Milton, Australia) and presented as % ID/g of tumour or tissue. […]

For data set [2], the system named is CDCP1-positive TKCC05 cells. The data set is described as follows: Lindmo assay, immune-reactive fraction. It is filed as binding, human. Particulars: 3 h at 4° C. On the procedure:
10D7 and control IgG1κ were labelled with the positron-emitting radionuclide ^89Zr as described (Zeglis B M and Lewis J S (2015) J Vis Exp 96:52521). Yield and purity of the labelled antibodies were determined by radio-TLC and -HPLC (Agilent, Mulgrave, Australia). To assess the impact of radiolabelling on 10D7 binding, the immune-reactive fraction (IRF) of 10D7-^89Zr was determined by Lindmo assay as previously described (Burvenich I J et al (2016) J Nucl Med. 57(6):974-80). Briefly, serially diluted TKCC05 cells (5×10^6-0.156×10^6 cells) were incubated with various amounts of 10D7-^89Zr alone or in the presence of a saturating amount of unlabelled 10D7 antibody (700 nM). After incubation (3 h at 4° C.) cells were centrifuged and the radioactivity of the cell pellet and supernatant was determined using a Wizard 2480 gamma counter (Perkin Elmer, Milton, Australia) and immunoreactive fraction (IRF) was calculated as previously described (Tolmachev V, Orlova A, Andersson K. (2014) Methods Mol Biol. 1060:309-30; Burvenich I J et al (2016) J Nucl Med. 57(6):974-80).
To evaluate whether the ability of antibody 10D7 to disrupt cellular processes that promote PDAC in vitro can be harnessed to target this cancer in vivo, the inventors first evaluated the capacity of this antibody to detect PDAC xenografts in mice. […]

B1: ^89Zr-DFO-10D7 (conjugate)
VH: EVQLQQFGAELVKPGASVKISCKASGYSFSDFNIEWLKQSHGKSLEWIGDINPNYDSTNYNQKFKGRATLTVDKSSSTAYMEVRSLTSEDTAVYYCARLGYGYAMDYWGQGTSVTVSS
VL: NIVMTQSPQSMSMSVGERVTLSCKASENVGAYVSWFQQKPDQSPKLLILAASNRYTGVPARFIGSGSATDFTLTISSVQAEDLADYHCGQSYTYPYTFGGGTKLEIKRADAAPTVS
B1: the “percent injected dose per gram of tissue, tumour” value in data set [1] was found to be 47.7±2.6 % ID/g. The “immune-reactive fraction (IRF)” value in data set [2] turned out to be 88.9%.
